± gives the uncertainty stated by the source.
B1: POU domain, class 3, transcription factor 1, residues 247 to 324; numbered along this chain, Q03052 (parent)
chain: EDAPSSDDLEQFAKQFKQRRIKLGFTQADVGLALGTLYGNVFSQTTICRFEALQLSFKNMCKLKPLLNKWLEETDSSS

Variants of: B1
Assay: abundance fitness (aPCA) (normalised: wild type 0, dead -1); higher = more abundant; growth selection in yeast, the domain comes from the species named
Conditions: Homo sapiens

Variant | abundance fitness
EDAPSSDDLEQFAKQFKQRRIKLGFTQADVGLALGTLYGNVFSQTTICRFEALQLSFKNMCKLKPLLNKWLKETDSSS | -0.049 ± 0.076
EDAPSSDDLEQFAKQFKQRRIKLGFTQADVGLALGTLYGNVFSQTTICRFEALQLSFKNMCKLKPLLNKWLFETDSSS | -0.493 ± 0.14
EDAPSSDDLEQFAKQFKQRRIKLGFTQADVGLALGTLYGNVFSQTTICRFEALQLSFKNMCKLKPLLNKWLRETDSSS | -0.079 ± 0.04
EDAPSSDDLEQFAKQFKQRRIKLGFTQADVGLALGTLYGNVFSQTTICRFEALQLSFKNMCKLKPLLNKWLVETDSSS | -0.1 ± 0.044
EDAPSSDDLEQFAKQFKQRRIKLGFTQADVGLALGTLYGNVFSQTTICRFEALQLSFKNMCKLKPLLNKWLPETDSSS | -0.736 ± 0.14
EDAPSSDDLEQFAKQFKQRRIKLGFTQADVGLALGTLYGNVFSQTTICRFEALQLSFKNMCKLKPLLNKWLHETDSSS | -0.018 ± 0.1
EDAPSSDDLEQFAKQFKQRRIKLGFTQADVGLALGTLYGNVFSQTTICRFEALQLSFKNMCKLKPLLNKWLCETDSSS | -0.247 ± 0.091
EDAPSSDDLEQFAKQFKQRRIKLGFTQADVGLALGTLYGNVFSQTTICRFEALQLSFKNMCKLKPLLNKWLMETDSSS | 0.037 ± 0.057
EDAPSSDDLEQFAKQFKQRRIKLGFTQADVGLALGTLYGNVFSQTTICRFEALQLSFKNMCKLKPLLNKWLTETDSSS | -0.148 ± 0.071
EDAPSSDDLEQFAKQFKQRRIKLGFTQADVGLALGTLYGNVFSQTTICRFEALQLSFKNMCKLKPLLNKWLDETDSSS | 0.004 ± 0.065
EDAPSSDDLEQFAKQFKQRRIKLGFTQADVGLALGTLYGNVFSQTTICRFEALQLSFKNMCKLKPLLNKWLSETDSSS | -0.212 ± 0.054
EDAPSSDDLEQFAKQFKQRRIKLGFTQADVGLALGTLYGNVFSQTTICRFEALQLSFKNMCKLKPLLNKWLIETDSSS | -0.245 ± 0.13
EDAPSSDDLEQFAKQFKQRRIKLGFTQADVGLALGTLYGNVFSQTTICRFEALQLSFKNMCKLKPLLNKWLAETDSSS | -0.193 ± 0.05
EDAPSSDDLEQFAKQFKQRRIKLGFTQADVGLALGTLYGNVFSQTTICRFEALQLSFKNMCKLKPLLNKWLGETDSSS | -0.368 ± 0.052
EDAPSSDDLEQFAKQFKQRRIKLGFTQADVGLALGTLYGNVFSQTTICRFEALQLSFKNMCKLKPLLNKWLQETDSSS | -0.143 ± 0.073
EDAPSSDDLEQFAKQFKQRRIKLGFTQADVGLALGTLYGNVFSQTTICRFEALQLSFKNMCKLKPLLNKWLLETDSSS | -0.024 ± 0.044
EDAPSSDDLEQFAKQFKQRRIKLGFTQADVGLALGTLYGNVFSQTTICRFEALQLSFKNMCKLKPLLNKWLYETDSSS | -0.19 ± 0.12
EDAPSSDDLEQFAKQFKQRRIKLGFTQADVGLALGTLYGNVFSQTTICRFEALQLSFKNMCKLKPLLNKWLNETDSSS | -0.152 ± 0.13

Variant | abundance fitness
EDAPSSDDLEQFAKQFKQRRIKLGFTQADVGLALGTLYGNVFSQTTICRFEALQLSFKNMCKLKPLLNKWCEETDSSS | -0.712 ± 0.13
EDAPSSDDLEQFAKQFKQRRIKLGFTQADVGLALGTLYGNVFSQTTICRFEALQLSFKNMCKLKPLLNKWREETDSSS | -0.569 ± 0.081
EDAPSSDDLEQFAKQFKQRRIKLGFTQADVGLALGTLYGNVFSQTTICRFEALQLSFKNMCKLKPLLNKWQEETDSSS | -0.504 ± 0.16
EDAPSSDDLEQFAKQFKQRRIKLGFTQADVGLALGTLYGNVFSQTTICRFEALQLSFKNMCKLKPLLNKWSEETDSSS | -0.706 ± 0.13
EDAPSSDDLEQFAKQFKQRRIKLGFTQADVGLALGTLYGNVFSQTTICRFEALQLSFKNMCKLKPLLNKWIEETDSSS | -0.019 ± 0.11
EDAPSSDDLEQFAKQFKQRRIKLGFTQADVGLALGTLYGNVFSQTTICRFEALQLSFKNMCKLKPLLNKWDEETDSSS | -0.711 ± 0.47
EDAPSSDDLEQFAKQFKQRRIKLGFTQADVGLALGTLYGNVFSQTTICRFEALQLSFKNMCKLKPLLNKWGEETDSSS | -0.851 ± 0.11
EDAPSSDDLEQFAKQFKQRRIKLGFTQADVGLALGTLYGNVFSQTTICRFEALQLSFKNMCKLKPLLNKWKEETDSSS | -0.677 ± 0.21
EDAPSSDDLEQFAKQFKQRRIKLGFTQADVGLALGTLYGNVFSQTTICRFEALQLSFKNMCKLKPLLNKWTEETDSSS | -0.988 ± 0.23
EDAPSSDDLEQFAKQFKQRRIKLGFTQADVGLALGTLYGNVFSQTTICRFEALQLSFKNMCKLKPLLNKWMEETDSSS | 0.03 ± 0.082
EDAPSSDDLEQFAKQFKQRRIKLGFTQADVGLALGTLYGNVFSQTTICRFEALQLSFKNMCKLKPLLNKWHEETDSSS | -0.402 ± 0.35
EDAPSSDDLEQFAKQFKQRRIKLGFTQADVGLALGTLYGNVFSQTTICRFEALQLSFKNMCKLKPLLNKWFEETDSSS | -0.82 ± 0.25
EDAPSSDDLEQFAKQFKQRRIKLGFTQADVGLALGTLYGNVFSQTTICRFEALQLSFKNMCKLKPLLNKWEEETDSSS | -0.63 ± 0.12
EDAPSSDDLEQFAKQFKQRRIKLGFTQADVGLALGTLYGNVFSQTTICRFEALQLSFKNMCKLKPLLNKWNEETDSSS | -0.341 ± 0.18
EDAPSSDDLEQFAKQFKQRRIKLGFTQADVGLALGTLYGNVFSQTTICRFEALQLSFKNMCKLKPLLNKWWEETDSSS | -0.584 ± 0.098
EDAPSSDDLEQFAKQFKQRRIKLGFTQADVGLALGTLYGNVFSQTTICRFEALQLSFKNMCKLKPLLNKWPEETDSSS | -1.1 ± 0.27
EDAPSSDDLEQFAKQFKQRRIKLGFTQADVGLALGTLYGNVFSQTTICRFEALQLSFKNMCKLKPLLNKWVEETDSSS | -0.356 ± 0.069
